Data reported in the domain aggregation screens of Martell et al. (2025).

Test: soluble fraction after stress (log2 fold change); higher = more stays soluble; pooled small domains, quantitative proteomics
Conditions: stress: 75 degC
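Note: 20 min heating vs room temperature control held 20 min.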

Sequence	soluble fraction (log2)
HMNIDKLVGSTGTVVRSVTPDTAGLVRVNDEDWRASAEEILYERDAIVVEGIEGVTLIVSKLS	-0.813
HMNIETHIVPKLLAPIRLQEYGVGIFNNIPTKSALKKALKKQLITVDKTVATTATFIKGGETIELAYQ	-3.07
HMNIGEKIKTLRENNNISIEELAEKINDSIENILKYENNELEPTLDKKLALSIALGVTLSDLS	0.971
HMNIGELINKKRTELGLTLEEVGNAVGVSKSTVKKWEDGFISNMRRDKISKLAKVLEMNPVSLITGE	0.00376
HMNIGSKLRYLIEEANITQRQLADALHISPSALNGYINQGKEPDYATLVRIADYFHTSTDYLLGHSNIR	-0.806
HMNIIATHTVPAIEQKIRLQEYAISIFPQINSRSALKKAIAKKLVLLDGERASTADWIQPGQKIELLEDK	-1.37
HMNILAPFWERFGLSAFAAGNYDRAEGYFRKLEQKDPNSMSVLRNLGLILMAKGDAEGAEAYLLREEKL	-0.755
HMNILKKDKRLWDENNLNKPLLFELLENYDKEIFELLLTDKDIKAKFFVQAGESYVFKYDDFRFAIEQN	-3.32
HMNIMAQDWISSPMGPISFKSNQHGLVKIGWGEVPRENTEQPNLEFTRKWLVDYFEGKASPLPYF	-0.623
HMNIQGIFGRNLKQKRLEKGMTQEQLAEKAGVSTDTVKRYESGKYDGIRLDMAWYMANALDTPLQALLPP	0.598
HMNISALKGKIGEVYLKIPAHNAGKGKVLISLKGTHHELYAITRSGEDISSGEFVKVIEIEDEILVVEK	-2.05
HMNITFAENIKQFRKAKSMSMEELGKRLGKAKSSISAWENGKRTPKINELKSISEALGVTISQLLGF	-1.71
HMNIYIEFGRRLAFIRQNSKLSQSQIAQKLNIAQSTYAGYEKGVRKIPLEIIVQLSKILNISPTILILG	-3.84
HMNKADFLRKLDRELSVLDQEERKEILSFYEERFYTGTNYENKTELDIINELENPEIIAKNVLEEYGV	-0.253
HMNKDEFLRRLEDALSGEVPASVIRENLNYYADYLSQELGKGRTMDEIIEEIGEPNIVARTIINSAEAA	0.184
HMNKDWQDEVALQRYTMITPLLSEDLDNAKRIAMREKIAQDNLTTARSLYRYEKAYRENGFQGLRPTD	-0.252
HMNKEIEDYVATYSSMKAKEAAAIFDTMTSDLDLVAKILEAMSADDRAKILEQMNEENAARLTKMMD	0.0551
HMNKEQIASNIAEARKRSGLNQSELARRLGIRPQSVQQWEKGTATPKLDRLTAIAQVLGVSLESLTG	-0.0463
HMNKFADLAGNIIYNENGVEVFNFGKYKGQPVAEVFKKDIGYYGWIQNADFPRYTKKVFTAIQLKSK	-1.28
HMNKIDVVEVDMSKPYEDMTVTELQNVILGKLASNGPVTDQMKKDVAENIYHDSLVNWAKSF	0.883
HMNKIENLSQTILNILRKDHSQAFNYKQIAAKLQLDDPSSRNQIVKKLKDLQGKGTIQEIERGKYILTP	0.394
HMNKITIDQAKEIALNHAKLTAEQVSFIRTESEFDDGIEKYNIEFYYNNQKYDYDINAVNGQIIQYDLEG	0.159
HMNKITIEEAKSIALKHSNLDESQVSFIRSEYDFDNGIEKYEIEFYYNNNKYEYEINAKTGDIISYDYDI	-1.02
HMNKKAAYKDMAGYFAEMKSKDAADILSRLKDEDIIGIFNEMPRDMVAEMLQKMDRDKATTLTRKML	0.444
HMNKKEQYQNIISNFLEKMSEEDRLIFNMHFFKSINISQIARSIDREGYYVKTKIENLLADLKSLMIGNNL	-2.95
HMNKKETRLNNFIHFLKIRNSITVKEMANHLNVSEMTVRRDIKELTADHTINFENGKIMFNPQSSL	-1.82
HMNKLIIDAAEDKIFFMIMNNDISYNISHENTKINFEKLIILINDFLSSKKLKINDITGLYV	0.123
HMNKNIKIPNISNLSREDAESVLKESGISVSTEIKEVESDTIEKGKVVKTEPSIGSTVKQGRTITIYISSG	0.161

Sequence	soluble fraction (log2)
HMNKRYKVQVTTDNLKIRKGAGTSYPVVGHITDKGTYTIVETSGKWGKLLSGAGWIYLSYTKK	-2.13
HMNKTEIISILEKIVLPTQIRNINIFGSEVIIDLNIDNPSLHAKKKLEKSIINSFDKNHKIIINFNVE	-0.238
HMNKTLTEQIYDELKSAIIELELKPGEFVTEEYLAEQLGVSRTPLKSAISKLIFEGLMAYEVGKGTYIS	-1.11
HMNKVQTFIIEKHIKEVFEHTNRTYYRSGQYYFQTRDEFSMALKRFLKDREPNKKNWIDSIINRA	-0.945
HMNKYQFESKIHIYRATKRMTQQELADLVGVSRQTIMQLERNRYNPSMMLAYGIAKVFDVTIEDLFDFSEV	-3.18
HMNKYYQQLLQADPTGFIDPFKDLGTYDSRLNTFKEPVSELLNPFSGRPYSKIWQKRIETMREIFISYIKS	-2.8
HMNLDVEQIKKEALNQLIEIGNENDGIVTIKDFKKIDDISSLDEDDIEDIRNLLIENNIEIFE	0.0781
HMNLEQTIVLGKRLFNNALDTLGKKQRSIKNKQINKLLELLNFKNMNELYQSIGVGDKNPLLMAQMML	-0.775
HMNLESNQYVIDISDSQVINKDEFETILNQNKTKDIVIKSNNNVTFTFEKGSMIGAEGKDNYDFSSQVNY	-0.0852
HMNLFNEIEKQYQALQDRSSASLVDLRHLLLDIEELVNSPDYQALAPDQRSTLQAARKELMRRIQKQEN	0.819
HMNLGDSLFHARRKQGLSQEAVAEQLGVSRQTVSKWEANETLPDIRQSKLMAKLYHTSLDELI	0.0881
HMNLLDYTTLYVTSDGKSVSFGIAGKEIPVSYIAQEAPGTVVIDDTIRIPRKYDMEYILKRFNES	-1.2
HMNLLGDNIRKLRLEKGLGLNEVARLANITGGYLSSIENNKRTNVGTEILESIAKAIGVSVSDFYL	-0.347
HMNLLGERIREIRMEMGLTAKELAQRASVTPGYISQIEHDQIKPSMNVMMRIAEVLNVPMAALLM	-2.38
HMNLLPAGTYKLKDLVTAEDEEIGAKKGDVVIAHEDTPPSDRVLGVDIFPVIHKNTSKKIYVSLEDI	0.322
HMNLMQIHVARPPNQLGVFSQEEVAAGLQSGRFLPTDQAWRDGMSAWTPLSQWAEFSSVVAAV	-0.217
HMNLNLDITTYKLEELENLLKLKPNYKQEQIFEAKTKMEKFILKSNLNESKREELYIFLDNIYNKLTNNLL	-2.94
HMNLPISDREKELLTLLSKGLLYKEIASKLDITIGTVKQHIHNIYHKLHVSNKTEALNLFNK	-1
HMNLRLKEVLDEKNMSLVTLSEKTGIEKGNLSAISNNKKNPTVETLSKIAKALQISLAELFESPP	0.416
HMNLSDIETWLRELSLEKYALAFSEAEIDFETLPELTEDDLKEVGLPVGPRRKVWGAIQLLRTTD	-1.48
HMNLSNVVIRKVQEMILSGELQEGDKLPPEREMTQRLGIGRPALREGLKSLEMLGLVERRHGLGNFIINKV	-1.05
HMNLSPADFSSVRNALGLSLSTVAKESGINRNYLSNFEKKKHFLEETAKVKLRDYYMSIDPDAFAAAL	-0.408
HMNLVGGKINSLMTTKNVTIQDLSERSGLTVSQIELLLSGDKVPSLAVLIKIARGLGVRVGTFL	-1.12
HMNLVRQHTDYAFRLLVALSQAPGKPISTRTLASAADVPYQFASKIMQKLHEEGLVESVMGPFGGFRLVQ	-3.15
HMNLWIDNTQVINDWTEGASERSGSIYLTAGVKPIKMQYFDSVLNAKAILRWQGPGINKSVVPSSALTPG	-1.14
HMNMEDIADKIGRLYDNLPDDLKLMIKYRDIDDMTYDEIARKANLPIGTVRSRLHRARDILLREI	-1.07
HMNMFGIQRRNHLLSLLQEKKSITVQEAAVIFEVAEETIRRDFRTMEGQGLIVRTHGGALLADD	-4.21
